How the values were obtained:
Experiment in all cases: other fluorescence titration; microplate-based binding assay (HI-FI) with Alexa-488-labelled Sod1 and Ccs; 20 mM Tris pH 7.5, 150 mM NaCl, 1 mM TCEP; plates imaged on a Typhoon FLA 9500; quadruplicate; apparent dissociation constants
[1] = target: human Sod1 G93A/C146S, metal-free, disulfide reduced, labelled with Alexa-488 at C57 (human)
[2] = target: human Sod1 H80R/C146S, metal-free, disulfide reduced, labelled with Alexa-488 at C57 (human)
[3] = target: human Sod1 A4V/C146S, metal-free, disulfide reduced, labelled with Alexa-488 at C57 (human)
[4] = target: human Sod1 G85R/C146S, metal-free, disulfide reduced, labelled with Alexa-488 at C57 (human)

human copper chaperone for Sod1 (Ccs) (natural protein)
Kd [1]: 33.4 nM | Kd [2]: 67.6 nM | Kd [3]: 42.1 nM | Kd [4]: 35.5 nM

Source: publication PMC7179120
